Consider one protein from US8822171.

The target in the data set is recombinant human tau, largest isoform (2N4R).

B1: casein kinase 1 (CK1) (protein)
chain: MELRVGNRYRLGRKIGSGSFGDIYLGTDIAAGEEVAIKLECVKTKHPQLHIESKIYKMMQGGVGIPTIRWCGAEGDYNVMVMELLGPSLEDLFNFCSRKFSLKTVLLLADQMISRIEYIHSKNFIHRDVKPDNFLMGLGKKGNLVYIIDFGLAKKYRDARTHQHIPYRENKNLTGTARYASINTHLGIEQSRRDDLESLGYVLMYFNLGSLPWQGLKAATKRQKYERISEKKMSTPIEVLCKGYPSEFATYLNFCRSLRFDDKPDYSYLRQLFRNLFHRQGFSYDYVFDWNMLKFGASRAADDAERERRDREERLRH
As for B1, the “New sites identified in recombinant tau (phosphorylated residues, numbered on 441-residue human tau)” value is on record as “(46/50), 113, 131, 149, 169, 184, 208, (210, 212), 214, 237, 238, 241, 258, 262, 263, 285, 289, 305, 341, 352, 356, 361, 373, 386, (412/413/414/416, 2 sites), 416, 433, 435” and the “in vitro phosphorylation of recombinant tau, sites identified by LC/MS/MS” value is listed as “CK1 found 28 new sites making a total of 30 sites in all”.
